Measurements from US7919577B2, “Adrenocorticotropic hormone analogs and related methods” (Colorado Seminary, priority 2004, dated 2011).

Tests used:
[1] = biological target: T1, adrenal ACTH receptors such as MC-2R (explanted adrenal membrane) (Mus musculus, UniProt Q64326+Q9D159); experiment: in vitro Serum-free Adrenal Competitive Binding Assay (Example 3); conditions: cold peptide at 10 nM, 100 nM, 1000 nM; CPM; FIG. 3
T1 construct: the adrenal halves were macerated or otherwise dissociated using Dounce Homogenizer to form a membrane fraction; from tissue; host or cells: mouse adrenal glands (explanted, homogenised to a membrane fraction)
Source text: ACTH analog compounds that bind to adrenal membrane with a greater affinity than endogenous unmodified ACTH, and are able to displace unmodified ACTH can be identified using an in vitro Serum-free Adrenal Competitive Binding Assay (Example 3). […] A higher CPM level indicates the presence of greater amounts of the radiolabelled compound. […] Column 220 indicates the level of radio-labeled unmodified mACTH(1-24) detected after combining the explanted adrenal membrane with only the radio-labeled mACTH(1-24) for 2 hours (no competitive binding). Columns 230, 240, and 250 show the results of competitive binding assays for binding of non-radio-labeled (“cold”) mACTH(1-24) to displace the radio-labeled mACTH(1-24) from the explanted adrenal membrane (measured in column 220) by competitive binding to receptors such as MC-2R on the adrenal membrane. […]
ACTH analogs with the ability to bind adrenal receptors with a greater affinity than compounds with known adrenal binding activity (preferably ACTH) can also be identified by performing an in vitro Adrenal Competitive Binding Assay, whereby measurement of the reduction in the amount of the radiolabelled adrenal-binding compound (e.g., ACTH) is measured at various concentrations of non-radio-labeled ACTH analog test compound in a medium containing explanted adrenal membrane. […]

[2] = cited from earlier work
[3] = test system: dexamethasone-suppressed male FVB/N mice; experiment: in vivo Serum Corticosteroid Inhibition Assay (Example 2); design: species or system mouse; conditions: mACTH(1-24) alone 120 minutes after dexamethasone, blood one hour later
Procedure: The in vivo Serum Corticosteroid Inhibition Assay can include sequential administration of the test compound and the corticosteroid-producing compound by the following steps: first, an agent to suppress endogenous ACTH production was administered to a mouse subject, such as an intraperitoneal injection of dexamethasone; second, after waiting a suitable period of time for suppression of endogenous ACTH production (e.g., 1.5-2.0 hours), a test compound was administered to the mouse by a suitable method, such as intraperitoneal injection; third, after waiting a suitable period of time (e.g., 1 hour) for action of the test compound, a compound with corticosteroid-producing activity can be administered to the mouse by a suitable method, such as intraperitoneal injection; and fourth, after waiting a suitable period of time for the biological activity of both administered compounds to occur (e.g., 1 hour), a blood sample was taken from the subject and the level of serum corticosterone was determined by a suitable method, such as a competitive radioimmunoassay using ^125I RIA kit (ICN, Costa Mesa, Calif.). Optionally, steps two and three can be reversed (administering the corticosteroid-producing compound first, followed by administration of the test compound). The in vivo Serum Corticosteroid Inhibition Assay can also include co-administration of the test compound and the corticosteroid-producing compound by the following steps: first, an agent to suppress endogenous ACTH production was administered to a mouse subject, such as an intraperitoneal injection of dexamethasone; second, after waiting a suitable period of time for suppression of endogenous ACTH production (e.g., 1.5-2.0 hours), the corticosteroid-producing compound and a test compound were co-administered to the mouse by a suitable method, such as intraperitoneal injection; and third, after waiting a suitable period of time for the biological activity of both administered compounds to occur (e.g., 1 hour), a blood sample was taken from the subject and the level of serum corticosterone was determined by a suitable method, such as a competitive radioimmunoassay using ^125I RIA kit (ICN, Costa Mesa, Calif.). Also, in some embodiments, the first step in any in vivo Serum Corticosteroid Inhibition Assay can be replaced by a measurement of the initial endogenous corticosteroid or corticosteroid level in the blood of the subject in the manner of step four, instead of administering the agent to suppress ACTH production. Example 2 describes murine in vivo Serum Corticosteroid Inhibition Assays in detail.
A series of separate in vivo Serum Corticosteroid Inhibition Assays were performed to identify ACTH analogs that inhibit ACTH adrenal hormone production in vivo. The serum corticosterone levels of dexamethasone-suppressed mice were measured as described in Example 2 after administration of (1) ACTH (corticosteroid-producing compound), (2) an ACTH analog (test compound) followed by subsequent administration of ACTH, (3) a combination of ACTH and the ACTH analog and (4) the ACTH analog alone.
The in vivo Serum Corticosteroid Inhibition Assay was performed according the following method. The ACTH analog test compounds, such as those showing low activities in Example 1, were tested for their abilities to inhibit adrenal hormone production induced by unmodified ACTH.
First, two to three month-old male FVB/N mice from our colony, five per group, were injected intraperitoneally with dexamethasone (0.4 mg/0.1 ml PBS per mouse; Sigma, St. Louis, Mo.) to suppress their endogenous ACTH production.
Second, ninety to one hundred twenty minutes later, animals were injected subcutaneously between the shoulder blades with wild type ACTH and/or test ACTH analog peptides (1 μg/0.1 mL PBS/0.5% BSA) or with vehicle alone (0.1 mL PBS/0.5% BSA). […]

T1 sequence (Q64326 whole entry): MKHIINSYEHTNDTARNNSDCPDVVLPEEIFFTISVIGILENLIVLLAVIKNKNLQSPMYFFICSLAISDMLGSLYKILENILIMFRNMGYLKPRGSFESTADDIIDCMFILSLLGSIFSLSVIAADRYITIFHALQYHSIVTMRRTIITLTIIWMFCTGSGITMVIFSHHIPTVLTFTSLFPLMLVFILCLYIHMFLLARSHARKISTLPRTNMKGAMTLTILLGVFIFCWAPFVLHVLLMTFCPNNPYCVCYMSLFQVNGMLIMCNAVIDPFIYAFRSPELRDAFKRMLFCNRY
T1 sequence (Q9D159 whole entry): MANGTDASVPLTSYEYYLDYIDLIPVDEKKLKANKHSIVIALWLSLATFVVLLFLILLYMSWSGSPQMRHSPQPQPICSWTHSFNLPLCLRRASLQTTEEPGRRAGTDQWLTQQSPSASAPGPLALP

Substance: N-Ser^1-Tyr-Ser-Met-Glu^5-His-Phe-Arg-Trp-Gly^10-Lys-Pro-Val-Gly-Lys^15-Lys-Arg-Arg-Pro-Val^20-Lys-Val-Tyr-Pro-Ac [mACTH(1-24), reference compound]
- displacement of radio-labeled mACTH(1-24) from explanted adrenal membrane [1]: displacement of the radio-labeled mACTH(1-24)
- half life in blood [2]: less than 20 minutes
- serum corticosterone at 180 minutes [3]: 500 ± 76 ng/mL
- serum corticosterone at 180 minutes ([3]; listed as ACTH): 500 ± 76 ng/mL
